Measured values published in patent US20060026702A1, “Phosphoinositide 3-kinase mediated inhibition of GPCRs” (DUKE UNIVERSITY, priority 2002, published 2006).

T1: βARK1 (Bos taurus, UniProt P21146)
T1 construct: gift from Dr. Robert Lefkowitz
T1 sequence (P21146 1-689): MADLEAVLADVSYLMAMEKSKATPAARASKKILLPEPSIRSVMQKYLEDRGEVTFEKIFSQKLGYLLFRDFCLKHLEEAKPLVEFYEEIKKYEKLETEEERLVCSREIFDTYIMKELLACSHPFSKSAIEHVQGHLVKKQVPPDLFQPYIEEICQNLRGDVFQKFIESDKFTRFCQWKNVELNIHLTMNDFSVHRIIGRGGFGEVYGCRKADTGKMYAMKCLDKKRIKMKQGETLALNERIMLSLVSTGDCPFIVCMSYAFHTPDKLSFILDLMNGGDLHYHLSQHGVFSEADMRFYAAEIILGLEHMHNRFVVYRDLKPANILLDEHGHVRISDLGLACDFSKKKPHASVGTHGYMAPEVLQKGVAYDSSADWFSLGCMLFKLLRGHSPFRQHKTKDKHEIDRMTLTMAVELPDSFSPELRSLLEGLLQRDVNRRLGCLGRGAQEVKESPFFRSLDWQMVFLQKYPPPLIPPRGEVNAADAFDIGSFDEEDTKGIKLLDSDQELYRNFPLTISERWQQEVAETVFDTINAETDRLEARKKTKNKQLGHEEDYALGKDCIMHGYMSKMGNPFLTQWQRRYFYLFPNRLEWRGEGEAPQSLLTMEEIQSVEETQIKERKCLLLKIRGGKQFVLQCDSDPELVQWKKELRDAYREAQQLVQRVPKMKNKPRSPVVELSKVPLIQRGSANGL

B1: ΔPI3Kγ: HA tagged PI3 Kp110γ mutant, Δ942-981, deletion in ATP binding site; catalytically inactive (protein)
chain: MELENYKQPVVLREDNCRRRRRMKPRSAASLSSMELIPIEFVLPTSQRKCKSPETALLHVAGHGNVEQMKAQVWLRALETSVAADFYHRLGPHHFLLLYQKKGQWYEIYDKYQVVQTLDCLRYWKATHRSPGQIHLVQRHPPSEESQAFQRQLTALIGYDVTDVSNVHDDELEFTRRGLVTPRMAEVASRDPKLYAMHPWVTSKPLPEYLWKKIANNCIFIVIHRSTTSQTIKVSPDDTPGAILQSFFTKMAKKKSLMDIPESQSEQDFVLRVCGRDEYLVGETPIKNFQWVRHCLKNGEEIHVVLDTPPDPALDEVRKEEWPLVDDCTGVTGYHEQLTIHGKDHESVFTVSLWDCDRKFRVKIRGIDIPVLPRNTDLTVFVEANIQHGQQVLCQRRTSPKPFTEEVLWNVWLEFSIKIKDLPKGALLNLQIYCGKAPALSSKASAESPSSESKGKVRLLYYVNLLLIDHRFLLRRGEYVLHMWQISGKGEDQGSFNADKLTSATNPDKENSMSISILLDNYCHPIALPKHQPTPDPEGDRVRAEMPNQLRKQLEAIIATDPLNPLTAEDKELLWHFRYESLKHPKAYPKLFSSVKWGQQEIVAKTYQLLARREVWDQSALDVGLTMQLLDCNFSDENVRAIAVQKLESLEDDDVLHYLLQLVQAVKFEPYHDSALARFLLKRGLRNKRIGHFLFWFLRSEIAQSRHYQQRFAVILEAYLRGCGTAMLHDFTQQVQVIEMLQKVTLDIKSLSAEKYDVSSQVISQLKQKLENLQNSQLPESFRVPYDPGLKAGALAIEKCKVMASKKKPLWLEFKCADPTALSNETIGIIFKHGDDLRQDMLILQILRIMESIWETESLDLCLLPYGCISTGDKIGMIEIVKDATTIAKIQQSTVGNTGAFKDEVLNHWLKEKSPTEEKFQAAVERFVYSCAGYCVATFVLGIGDRVPFVLTPDFLFVMGTSGKKTSPHFQKFQDICVKAYLALRHHTNLLIIILFSMMLMTGMPQLTSKEDIEYIRDALTVGKNEEDAKKYFLDQIEVCRDKGWTVQFNWFLHLVLGIKQGEKHSAYPYDVPDYA
B2: GST-HEAT: GST fusion protein containing 535-732 amino acid residues of PI3Kγ, including the entire HEAT domain (protein)
chain: HPIALPKHQPTPDDRVRAEMPNQLRKQLEAIIATDTAEDKELLWHFRYESLKHPKAYPKLFSSVKWGQQEIVAKTYQLLARREVWDQSALDVGLTMQLLDCNFSDENVRAIAVQKLESLEDDDVLHYLLQLVQAVKFEPYHDSALARFLLKRGLRNKRIGHFLFWFLRSEIAQSRHYQQRFAVILEAYLRGCGTA
modifications: left off: a dimerising Fc or GST
notes: GST fusion protein containing 535-732 amino acid residues of PI3Kγ, including the entire HEAT domain

What was measured:
β2AR [1] = molecular target: T2, β2AR (Homo sapiens, UniProt P07550); test: Agonist-induced β2AR phosphorylation, 32P metabolic labeling; format: cell-based; conditions: 10 μM isoproterenol 5 min; ΔPI3Kγ co-transfected
T2 construct: expressed in transfected cells; host or cells: HEK-293
Experimental: β2AR Phosphorylation—β2AR phosphorylation was performed in intact cells as previously described. Cells were transfected with plasmids containing the FLAG β2AR (2 μg) and vector DNA (2.5 μg), the FLAG β2AR (2 μg) and PI3Kγ (2.5 μg), or the β2AR (2 μg) and ΔPI3Kγ (2.5 μg). 24 hr after transfection, cells were washed and metabolically labeled for 1 hr with medium containing 100 μCi of ^32P/ml. […] Following centrifugation at 38000×g for 20 min at 4° C., the supernatants were processed for immunoprecipitation of the FLAG-β2AR as described above. Phosphorylated receptors were resolved by 10% SDS-polyacrylamide gel electrophoresis and dried gels subjected to autoradiography.
To directly test the effect of API3Kγ expression on receptor phosphorylation, ^32P; metabolic labeling was performed in HEK-293 cells transfected with plasmids containing FLAG β2AR and either the PI3Kγ or ΔPI3Kγ cDNAs. […] Thus, the effect of overexpression of ΔPI3Kγ on β2AR sequestration is not related to processes that are involved with β2AR phosphorylation or β-arrestin2 recruitment. In FIG. 6D, Agonist (ISO, 5 min) promoted β2AR phosphorylation in transfected cells after ^32Pi metabolic labeling for 1 hour prior to stimulation (upper panel). Lower panel, immunoblot for HA showing equal levels of expression of HA-PI3Kγ and HA-ΔPIβKγ. + represents HA-PI3Kγ control.

β2AR [2] = test: β2AR sequestration in HEK-293 cells by 125I-Cyanopindolol binding; format: cell-based; conditions: 1 μM isoproterenol, 0-30 min; wortmannin 100 nM 15 min before, or co-transfected ΔPI3Kγ
Experimental: Determination of β2AR Sequestration in HEK-293 Cells by ^125I-Cyanopindolol (CYP) Binding—β2AR sequestration was performed as previously described. Briefly, HEK-293 cells were plated at a density of 2.5×10^6 cells/dish and transfected the following day with plasmids containing either the β2AR (150-250 ng), β2AR (250 ng) and HEAT domain (4 μg), PI3Kγ (4.0 μg) or ΔPI3Kγ (4.0 μg) cDNAs. Twelve hours after transfection cells were split into six well Falcon plates at a density of 750,000 cells/well. […] To determine the amount of internalized receptor, 100 μl aliquots of whole cells were added to 150 μl of binding buffer (75 mM Tris-HCl, 10 mM MgCl2, 5 mM EDTA (pH 7.5)). Total binding was determined in the presence of 175 pM ^125I-CYP alone, the number of internalized receptors were determined by using 175 pM ^125I-CYP plus 100 nM CGP12177, and non-specific binding was determined using 175 pM ^125I-CYP plus 1 μM propranolol. Sequestration was calculated as the ratio of (specific receptor binding of ^125I-CYP in the presence of CGP12177)/(specific receptor binding of ^125I-CYP in the absence of CGP12177).

β-arrestin2-GFP = β-arrestin2-GFP recruitment to the membrane by confocal microscopy; format: cell-based; conditions: isoproterenol; co-expressed mutant protein
Experimental: Confocal Microscopy—Confocal microscopy was performed as previously described. […] Cells were split into 35 mm^2 dishes with glass bottoms for observation using a Zeiss LSM-510 confocal microscope. […] For analyses of the HEAT domain, HEK 293 cells were transfected with the plasmids containing cDNAs encoding either the β2AR-YFP (2 μg) or β2AR-YFP (2 μg) and HEAT domain (4 μg). Cells were plated onto glass bottom dishes for observation in the confocal microscope. […] Cells were permeablized with 0.1% Triton X-100 in phosphate-buffered saline for 20 min, incubated in 1% BSA in phosphate-buffered saline for 1 hr. Cells were washed with 1× phosphate-buffered saline and incubated with anti-HA or anti-FLAG monoclonal antibody (1:250) with 1% BSA in 1× phosphate-buffered saline for 1 hr. Cells were washed and incubated with goat anti-mouse IgG conjugated with Texas Red (1:500) (Molecular Probes) for 1 hr. Samples were visualized using single sequential line excitation filters at 488 and 568 nm and emission filter sets at 505-550 nm for GFP detection and 585 for Texas Red detection.
To exclude these possibilities cells were co-transfected with plasmids containing FLAG β2AR, β-arrestin2-GFP and either PI3Kγ or ΔPI3Kγ cDNAs, and were monitored for the recruitment of β-arrestin2-GFP using confocal microscopy. […] Marked redistribution of β-arrestin2-GFP to the membrane occurred within 2.5 minutes. […]

[3] = system: Gβγ subunits of G-protein; test: Pull-down with purified Gβγ; format: binding; conditions: GST-HEAT beads with purified Gβγ
Experimental: Subsequently, 10 μg of purified Gβγ was added to either βARK1 immobilized beads (5 pg), or the GST-HEAT fusion protein beads (5 μg), and gently rocked for 45 min at room temperature. Beads were spun down, washed in binding buffer X2 and resolved by gel electrophoresis. The presence of Gβγ was detected by immunoblotting with an antibody directed against the Gβ subunit. Purified Gβγ and βARK1 were gifts from Dr. Robert Lefkowitz.
Purified βARK1 and GST-HEAT fusion protein immobilized on sepharose beads were incubated with purified Gβγ. The beads were washed and recovered proteins were analyzed by SDS-PAGE followed by immunoblotting with a Gβ polyclonal antibody. […] Purified Gβγ was loaded as a positive control.

βARK1 = molecular target: T1, βARK1; test: Co-immunoprecipitation and GST pull-down with purified βARK1; format: binding; conditions: sepharose beads, versus GST alone
Experimental: GST Fusion Protein Expression and Pull-down Experiments—Plasmid DNAs were transformed in Escherichia coli BL21 cells. Overnight cultures were grown in LB medium supplemented with ampicillin (100 μg/ml), diluted to an A600 of 0.2 in the same medium and grown for another 1 hr at 37° C. Cultured cells were then induced with 0.1 mM isopropyl-1-thio-β-D-galactopyranoside for 2 hr. Cell were then pelleted, washed once with 1× phosphate-buffered saline and resuspended in 1× phosphate-buffered saline containing 1 mM phenylmethylsulfonyl fluoride, 2 mg/ml lysozyme and incubated for 15 min on ice. Cells were lysed by adding Triton X-100 1%. Solublized cells were incubated with DNase (300 units) for 15 min on ice and centrifuged at 13,000 rpm for 10 min.
Glutathione-Sepharose beads were added to the supernatant and gently agitated at 4° C. for 2 hr. Beads were washed three times with ice cold 1×PBS containing 1% Triton X-100 followed by three washes with cold PBS without detergent. Protein concentration was determined using a DC protein assay kit (Bio Rad), and the integrity of the fusion protein was analyzed by SDS-polyacrylamide gel electrophoresis and Coomassie staining.
The beads were spun and washed three times with binding buffer followed by three washes with binding buffer without detergent. The beads were resuspended in SDS gel loading buffer and resolved by gel electrophoresis, immunblotting and detection was carried out described later.
FLAG-HEAT and PI3KΔHEAT proteins were immunoprecipitated from cell extracts using monoclonal FLAG and HA antibodies respectively, fractionated by SDS-PAGE and analyzed by immunoblotting with βARK1 monoclonal antibody. […] Levels of expression of HEAT and PI3KΔHEAT proteins were similar (FIG. 8B, lower panel).
To investigate whether there was a direct physical interaction between the HEAT domain of PI3K and βARK1, GST-HEAT fusion protein containing 535-732 amino acid residues of PI3Kγ was produced, which including the entire HEAT domain and flanking upstream 10 amino acids and downstream 7 amino acids. […]

Molecule	level of agonist-induced receptor phosphorylation (β2AR [1])	rate of β2AR sequestration (β2AR [2])	recruitment of β-arrestin2-GFP to the receptor/membrane after agonist (β-arrestin2-GFP)	association of Gβγ [3]	binding of purified βARK1 to immobilized fusion protein (βARK1)
B1	not affected	significant attenuation	prompt recruitment		
B2				no association	bound specifically
